Data on three molecules can be found in publication PMC11220838, “Factors affecting macromolecule orientations in thin films formed in cryo-EM” (Acta Crystallographica. Section D, Structural Biology, 2024).

Several values for one entry are separate records, joined by “and”; a condition that tells them apart may be missing. Equal entries are not always repeated.

A word on the stoichiometry N: it is a count of units in the complex or per binding partner.

Series [1] has as its target SARS-CoV-2 spike protein with C-terminal tag (SARS-CoV-2). Briefly: cryo-EM structure.
Series [2] addresses T1, Human C-reactive protein (human), P02741.
T1 chain: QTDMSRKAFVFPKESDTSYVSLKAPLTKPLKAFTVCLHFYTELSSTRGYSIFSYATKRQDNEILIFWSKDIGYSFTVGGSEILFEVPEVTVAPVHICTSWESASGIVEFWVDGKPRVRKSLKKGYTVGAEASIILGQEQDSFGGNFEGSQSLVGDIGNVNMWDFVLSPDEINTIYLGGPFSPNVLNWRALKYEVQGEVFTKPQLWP
Briefly: cryo-EM structure; single-particle cryo-EM, plunge-frozen Quantifoil 1.2/1.3 grids, 20 mM Tris pH 8, 280 mM NaCl, 5 mM CaCl2, 0.03% NaN3; no additive or CTAB, SLS, Tween 20, Tween 80, A8-35; 20°C. To be noted: remark: other sources report otherwise.

Series [3] deals with the molecule itself. Briefly: cryo-EM structure; single-particle cryo-EM, plunge-frozen Quantifoil 0.6/1 grids, 25 mM HEPES pH 7.4, 50 mM NaCl; no additive or CTAB; 4 or 20°C; D3 symmetry.

“SARS-CoV-2 spike protein with C-terminal tag (domain or fragment)”: the stoichiometry N in series [1] was 3.

B1: Human C-reactive protein, P02741 19-224 (natural protein)
chain: QTDMSRKAFVFPKESDTSYVSLKAPLTKPLKAFTVCLHFYTELSSTRGYSIFSYATKRQDNEILIFWSKDIGYSFTVGGSEILFEVPEVTVAPVHICTSWESASGIVEFWVDGKPRVRKSLKKGYTVGAEASIILGQEQDSFGGNFEGSQSLVGDIGNVNMWDFVLSPDEINTIYLGGPFSPNVLNWRALKYEVQGEVFTKPQLWP
Turning to B1, the stoichiometry N in series [2] is 5 and 10.

B2: E. coli PaaZ (enzyme)
chain: QQLASFLSGTWQSGRGRSRLIHHAISGEALWEVTSEGLDMAAARQFAIEKGAPALRAMTFIERAAMLKAVAKHLLSEKERFYALSAQTGATRADSWVDIEGGIGTLFTYASLGSRELPDDTLWPEDELIPLSKEGGFAARHLLTSKSGVAVHINAFNFPCWGMLEKLAPTWLGGMPAIIKPATATAQLTQAMVKSIVDSGLVPEGAISLICGSAGDLLDHLDSQDVVTFTGSAATGQMLRVQPNIVAKSIPFTMEADSLNCCVLGEDVTPDQPEFALFIREVVREMTTKAGQKCTAIRRIIVPQALVNAVSDALVARLQKVVVGDPAQEGVKMGALVNAEQRADVQEKVNILLAAGCEIRLGGQADLSAAGAFFPPTLLYCPQPDETPAVHATEAFGPVATLMPAQNQRHALQLACAGGGSLAGTLVTADPQIARQFIADAARTHGRIQILNEESAKESTGHGSPLPQLVHGGPGRAGGGEELGGLRAVKHYMQRTAVQGSPTMLAAISKQWVRGAKVEEDRIHPFRKYFEELQPGDSLLTPRRTMTEADIVNFACLSGDHFYAHMDKIAAAESIFGERVVHGYFVLSAAAGLFVDAGVGPVIANYGLESLRFIEPVKPGDTIQVRLTCKRKTLKKQRSAEEKPTGVVEWAVEVFNQHQTPVALYSILTLVARQHGDFVD
notes: source: recombinantly overexpressed, purified as described in Sathyanarayanan et al. (2019)
Turning to B2, the “stoichiometry N” value in series [3] worked out at 6.
